Binding signal, binding result and Kd data for six molecules are collected here from publication PMC9945446, “DNMT1 inhibition by pUG-fold quadruplex RNA”.

The target of series [1] is T1, DNMT1 (human, UniProt P26358 1-1616). Put plainly: EMSA; 100 mM KCl; 50 mM Tris-HCl pH 7.5, 100 mM KCl (or LiCl), 2.5 mM MgCl2, 0.1 mM ZnCl2, 2 mM BME, 0.05% NP40, 5% glycerol, 0.1 mg/mL BSA, 0.1 mg/mL yeast tRNA; 30 C 1 h; 1% agarose gel in 1x TBE at 4 C. The note with it: protein: recombinant; tags: MBP tag cleaved with PreScission protease; label: 5' 32P; canonical G4. Background: Mobility shift assays separate free from complexed probe on a gel.
T1 sequence (P26358 whole entry): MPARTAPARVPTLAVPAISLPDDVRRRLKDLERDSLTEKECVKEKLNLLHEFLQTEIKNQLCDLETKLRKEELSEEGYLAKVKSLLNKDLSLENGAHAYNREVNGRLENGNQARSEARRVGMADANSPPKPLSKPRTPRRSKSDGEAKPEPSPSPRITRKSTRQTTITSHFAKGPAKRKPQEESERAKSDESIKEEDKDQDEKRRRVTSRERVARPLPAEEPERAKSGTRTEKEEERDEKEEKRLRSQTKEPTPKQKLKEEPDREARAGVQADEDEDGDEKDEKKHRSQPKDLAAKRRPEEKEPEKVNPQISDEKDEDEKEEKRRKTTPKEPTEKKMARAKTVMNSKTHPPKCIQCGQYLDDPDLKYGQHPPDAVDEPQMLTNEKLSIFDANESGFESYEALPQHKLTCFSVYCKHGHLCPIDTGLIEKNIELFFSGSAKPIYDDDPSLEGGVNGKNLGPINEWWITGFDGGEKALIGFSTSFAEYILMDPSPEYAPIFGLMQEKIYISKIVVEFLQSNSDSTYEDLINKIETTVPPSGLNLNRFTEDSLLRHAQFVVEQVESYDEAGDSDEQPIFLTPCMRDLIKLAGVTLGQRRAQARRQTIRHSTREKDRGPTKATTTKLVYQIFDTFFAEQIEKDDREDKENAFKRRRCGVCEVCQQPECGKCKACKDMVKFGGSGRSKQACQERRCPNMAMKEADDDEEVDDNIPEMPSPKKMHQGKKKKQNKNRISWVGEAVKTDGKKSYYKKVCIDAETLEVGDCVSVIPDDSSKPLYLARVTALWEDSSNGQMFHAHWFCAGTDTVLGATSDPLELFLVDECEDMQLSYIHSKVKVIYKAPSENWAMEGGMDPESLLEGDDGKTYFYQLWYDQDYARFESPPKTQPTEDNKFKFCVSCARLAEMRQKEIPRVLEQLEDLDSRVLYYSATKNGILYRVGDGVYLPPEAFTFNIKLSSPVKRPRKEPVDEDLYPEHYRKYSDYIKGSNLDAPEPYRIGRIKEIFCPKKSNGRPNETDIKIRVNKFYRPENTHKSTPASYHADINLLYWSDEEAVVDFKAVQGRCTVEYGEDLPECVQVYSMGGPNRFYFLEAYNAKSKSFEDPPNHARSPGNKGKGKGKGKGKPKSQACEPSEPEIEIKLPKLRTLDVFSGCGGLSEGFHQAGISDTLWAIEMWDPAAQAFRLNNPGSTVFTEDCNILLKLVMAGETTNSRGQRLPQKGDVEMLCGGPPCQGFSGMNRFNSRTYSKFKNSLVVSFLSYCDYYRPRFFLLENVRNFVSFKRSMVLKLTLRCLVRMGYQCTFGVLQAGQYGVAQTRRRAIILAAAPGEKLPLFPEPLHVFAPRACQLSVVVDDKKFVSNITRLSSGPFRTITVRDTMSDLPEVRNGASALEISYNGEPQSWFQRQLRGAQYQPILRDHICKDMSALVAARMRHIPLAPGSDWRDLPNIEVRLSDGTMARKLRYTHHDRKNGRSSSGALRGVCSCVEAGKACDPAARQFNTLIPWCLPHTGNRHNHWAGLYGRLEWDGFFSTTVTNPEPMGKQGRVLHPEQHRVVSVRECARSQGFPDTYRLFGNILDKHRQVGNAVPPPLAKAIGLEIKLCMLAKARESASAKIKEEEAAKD

Series [2] has as its target T1, DNMT1. The description is as above. The note with it: protein: recombinant; tags: MBP tag cleaved with PreScission protease; label: 5' 32P; one pUG-fold in K+.
For series [3], the target named is T1, DNMT1. Put plainly: EMSA; 100 mM KCl; undetectable; 50 mM Tris-HCl pH 7.5, 100 mM KCl (or LiCl), 2.5 mM MgCl2, 0.1 mM ZnCl2, 2 mM BME, 0.05% NP40, 5% glycerol, 0.1 mg/mL BSA, 0.1 mg/mL yeast tRNA; 30 C 1 h; 1% agarose gel in 1x TBE at 4 C. The note with it: protein: recombinant; tags: MBP tag cleaved with PreScission protease; label: 5' 32P; unstructured.
Series [4] concerns the target T1, DNMT1. Put plainly: EMSA; 100 mM KCl; 50 mM Tris-HCl pH 7.5, 100 mM KCl (or LiCl), 2.5 mM MgCl2, 0.1 mM ZnCl2, 2 mM BME, 0.05% NP40, 5% glycerol, 0.1 mg/mL BSA, 0.1 mg/mL yeast tRNA; 30 C 1 h; 1% agarose gel in 1x TBE at 4 C. The following applies: protein: recombinant, tags: MBP tag cleaved with PreScission protease; for Kd: label: 5' 32P.

Regarding GGAAGGAAGGAAGGAAGGAAGGAAGGAAGGAAGGAAGGAA (structured_RNA) [(GGAA)10], the binding signal with DNMT1 [1] was 3 fold weaker than (GU)20.

For GUGUGUGUGUGUGUGUGUGUGUGU (structured_RNA) [(GU)12], in the series with DNMT1 [2], the binding signal was 5 fold weaker than (GU)20.

As for AAAAAAAAAAAAAAAAAAAAAAAAAAAAAAAAAAAAAAAA (ssRNA) [(A)40], the binding result with DNMT1 [3] is listed as “no binding”.

B1: (GU)30 (structured_RNA)
RNA: GUGUGUGUGUGUGUGUGUGUGUGUGUGUGUGUGUGUGUGUGUGUGUGUGUGUGUGUGUGU
On to B1, for which the Kd (usually the free concentration of one partner at which half of the binding sites on the other are occupied at equilibrium, for simple one-to-one binding) in the series with DNMT1 [4] (pUG-fold, possibly two) is 13 nM.

For the molecule GUGUGUGUGUGUGUGUGUGUGUGUGUGUGUGUGUGUGUGU (structured_RNA) [(GU)20], in the series with DNMT1 [4] (pUG-fold (noncanonical G4) in K+), the Kd is 69 nM.

B2: Hemimethylated DNA substrate (dsDNA)
DNA 1: TACGTATCCGTATCCGGTTACGTATCCGAATCCGTACCGT
DNA 2: ACGGTACGGATTCGGATACGTAACCGGATACGGATACGTA
modifications: 5mC at strand 1 positions 3,9,15,21,27,33,38
For B2, the binding result in the series with DNMT1 [4] (label: 32P end label, blunt) was “binds”.
